Experimental data reported in patent publication US20180017550.

Columns and labels:
[1] = biological target: human protein kinase A catalytic subunit alpha, cell-free expressed with C-terminal HSV epitope tag and polyhistidine tag, P17612
[2] = biological target: human p53 oncoprotein (cellular tumor antigen p53), cell-free expressed from pETBlue-2 with C-terminal HSV epitope tag and polyhistidine tag, P04637
[3] = biological target: human MDM2 (ubiquitin-protein ligase E3 MDM2), cell-free expressed with C-terminal HSV epitope tag and polyhistidine tag, Q00987
[4] = biological target: Human casein kinase II (CK), cell-free expressed with C-terminal HSV epitope tag and polyhistidine tag

B1: human recombinant ZAP-70 tyrosine kinase (Invitrogen Corporation) (protein)
chain: MPDPAAHLPFFYGSISRAEAEEHLKLAGMADGLFLLRQCLRSLGGYVLSLVHDVRFHHFPIERQLNGTYAIAGGKAHCGPAELCEFYSRDPDGLPCNLRKPCNRPSGLEPQPGVFDCLRDAMVRDYVRQTWKLEGEALEQAIISQAPQVEKLIATTAHERMPWYHSSLTREEAERKLYSGAQTDGKFLLRPRKEQGTYALSLIYGKTVYHYLISQDKAGKYCIPEGTKFDTLWQLVEYLKLKADGLIYCLKEACPNSSASNASGAAAPTLPAHPSTLTHPQRRIDTLNSDGYTPEPARITSPDKPRPMPMDTSVYESPYSDPEELKDKKLFLKRDNLLIADIELGCGNFGSVRQGVYRMRKKQIDVAIKVLKQGTEKADTEEMMREAQIMHQLDNPYIVRLIGVCQAEALMLVMEMAGGGPLHKFLVGKREEIPVSNVAELLHQVSMGMKYLEEKNFVHRDLAARNVLLVNRHYAKISDFGLSKALGADDSYYTARSAGKWPLKWYAPECINFRKFSSRSDVWSYGVTMWEALSYGQKPYKKMKGPEVMAFIEQGKRMECPPECPPELYALMSDCWIYKWEDRPDFLTVEQRMRACYYSLASKVEGPPGSTQKAEAACA
In the case of B1, the “phosphorylation of photo-transferred protein on microarray, anti-phosphotyrosine (RC20) detection” value (from here on “phosphorylation”) [1] is reported as “phosphorylates PKA to a very slight, nearly undetectable degree”, the “phosphorylation” value [2] is reported as “p53 is not phosphorylated by either kinase” and the “phosphorylation” value [3] is reported as “Both kinases heavily phosphorylate the MDM protein”. The “phosphorylation” value [4] was “ZAP-70 does not phosphorylate CK”.
